Source: US20250228955A1 (ALBERT EINSTEIN COLLEGE OF MEDICINE, published 2025)
Like-named read-outs stand apart in the source and are kept apart here.

Legend:
[1] = target: T1, recombinant Strep-tagged SARS-CoV-2 trimeric spike (SARS-CoV-2, UniProt P0DTC2 14-1208)
[2] = target: T1, recombinant Strep-tagged SARS-CoV-2 …; remark: listed apart in the source
[3] = target: T1, recombinant Strep-tagged SARS-CoV-2 …; remark: listed apart in the source
[4] = target: T2, human epidermal growth factor receptor (EGFR) (human, UniProt P00533 25-645)
[5] = target: T1, recombinant Strep-tagged SARS-CoV-2 …; remark: listed apart in the source
[6] = target: T2, human epidermal growth factor receptor …; assay: biolayer interferometry

B1: ODIN-1-A56R fusion (ODIN-1 fused to vaccinia virus (VACV) A56R for rVACV display) (bispecific antibody, V domains shown)
VH: MGWFRQTNKKECPEDYTYNPRCPQQYGWSDCDCMGDRFGGYCRQDGCSNYIHRSTREFVATISWSGGSTYYTDSVKGRFTISRDNAKNTVYLQMNSLKPDDTAVYYCAAAGLGTVVSEWDYDYDYWGQGTQVTVSS
EC50 (read off the curve) [1]: ~0.06 µg/mL
EC50 (read off the curve) [2]: ~0.2 µg/mL

B2: ODIN-8 (VHH-72.58 with UL-CDR3 from 60H05 bovine IgG in FR2 loop) (bispecific antibody, V domains shown)
VH: MGWFRQNKLKSCPDGYTSGVECRFRGYTCANDGCWRVCSFTTCSGWMPASDTYRREFVATISWSGGSTYYTDSVKGRFTISRDNAKNTVYLQMNSLKPDDTAVYYCAAAGLGTVVSEWDYDYDYWGQGTQVTVSS
Kd [3]: 76.4 nM
koff [3]: 0.012 s⁻¹
kon [3]: 158000 M⁻¹ s⁻¹
Kd [4]: 11.4 nM
koff [4]: 0.00103 s⁻¹
kon [4]: 90500 M⁻¹ s⁻¹

B3: VHH-72 (SARS-CoV-2 spike VHH, soluble recombinant) (VHH)
VHH: QVQLQESGGGLVQAGGSLRLSCAASGRTFSEYAMGWFRQAPGKEREFVATISWSGGSTYYTDSVKGRFTISRDNAKNTVYLQMNSLKPDDTAVYYCAAAGLGTVVSEWDYDYDYWGQGTQVTVSS
notes: also called parental VHH-72; VHH 72.58
Kd [5]: 460 nM
koff [5]: 0.0364 s⁻¹
kon [5]: 79200 M⁻¹ s⁻¹
binding result [6]: no binding

B4: VHH-72-A56R fusion (VHH-72 fused to vaccinia virus (VACV) A56R for rVACV display) (VHH)
VHH: QVQLQESGGGLVQAGGSLRLSCAASGRTFSEYAMGWFRQAPGKEREFVATISWSGGSTYYTDSVKGRFTISRDNAKNTVYLQMNSLKPDDTAVYYCAAAGLGTVVSEWDYDYDYWGQGTQVTVSS
EC50 (read off the curve) [1]: ~0.07 µg/mL
